Data as given in the RNAGym collection of RNA variant scans (doi:10.7554/elife.80360).

B1: Hairpin Ribozyme (parent)
chain: GUCCUCUUUCACGUGCGCGUGAAAGAGAGAAGUGAACCAGAGAAACACACGUUGUGGUAUAUUACCUGGUA

Variants of: B1
Experiment: self-cleavage, relative activity (ratio to wild type); higher = more cleavage; co-transcriptional

| Variant | self-cleavage |
| --- | --- |
| U8A A26G | 0.606 |
| U7C G21U | 0.565 |
| U8A A61G | 0.0847 |
| C6U U63G | 0.119 |
| C6U U63C | 0.167 |
| U7C C12G | 0.758 |
| U7G C48A | 0.142 |
| U7G A36G | 0.828 |
| U7G A36U | 0.507 |
| C6G U58G | 0.498 |
| C6G U58C | 0.484 |
| C6G U58A | 0.29 |
| U8A A28C | 0.385 |
| U8A A28U | 0.613 |
| U7C A45U | 0.231 |
| U7G U8C | 0.656 |
| U7G U8A | 0.942 |
| C6G C48G | 0.115 |
| C6U A35G | 0.683 |
| C6U A35C | 0.896 |
| U7G G54C | 0.41 |
| U7C U55G | 0.344 |
| U7C U55C | 0.418 |
| U7C U55A | 0.167 |

| Variant | self-cleavage |
| --- | --- |
| U7A U8A | 1.14 |
| C6U U70G | 0.588 |
| C6U U70C | 0.901 |
| U7C C65A | 0.684 |
| U7G A61C | 0.261 |
| U7G U20G | 0.453 |
| U8A A43C | 0.153 |
| C6G U62A | 0.0667 |
| C6G U62G | 0.159 |
| U7G U58C | 0.813 |
| C6G A36C | 0.307 |
| U7C G56A | 0.184 |
| U7C G56C | 0.122 |
| U8A C18G | 0.524 |
| U8A C18U | 0.779 |
| C6G G13A | 0.45 |
| C6G G13C | 0.381 |
| U7A U20A | 0.723 |
| U7A U20C | 0.774 |
| U7C G69C | 0.17 |
| U7A G21A | 0.706 |
| C6G G29U | 0.0829 |
| C6G G17U | 0.369 |
| C6G G32C | 0.0741 |

| Variant | self-cleavage |
| --- | --- |
| C6U G40U | 0.166 |
| U7G G51C | 0.908 |
| U7A G51U | 0.866 |
| C6U G51A | 0.816 |
| C6G C16G | 0.423 |
| U7G C46G | 0.134 |
| C6U G17A | 0.917 |
| C6U G17C | 0.434 |
| C6G U53A | 0.585 |
| C6G U53C | 0.329 |
| U8A A30U | 0.0488 |
| U7G A39C | 0.48 |
| C6G C37U | 0.257 |
| U7A G57A | 0.128 |
| U7A G57C | 0.151 |
| U7A G40A | 0.313 |
| U7C A36U | 0.466 |
| U7C A36G | 0.925 |
| U7A U62C | 0.222 |
| U7A A28U | 0.58 |
| C6U A39C | 0.504 |
| C6U G21U | 0.468 |
| U7G A11C | 0.481 |
| U7G A11G | 0.734 |

| Variant | self-cleavage |
| --- | --- |
| U7G A11U | 0.58 |
| U8A A23U | 0.911 |
| U8A C38U | 0.357 |
| U8A C50A | 0.158 |
| U8A C50U | 0.311 |
| U7C U20A | 0.82 |
| U7C U20C | 1.14 |
| U8A A39C | 0.396 |
| C6U A43C | 0.0901 |
| C6U A43G | 0.151 |
| U7G A30C | 0.0485 |
| U7C G40U | 0.163 |
| C6G G34C | 1.03 |
| U7A U63A | 0.181 |
| C6G A61G | 0.147 |
| U7C C46U | 0.195 |
| U7C C46A | 0.224 |
| U7C G54A | 0.525 |
| U7A A36G | 1.03 |
| C6G G57A | 0.11 |
| C6G A49C | 0.0827 |
| C6U U33A | 0.148 |
| U7A A44U | 0.117 |
| U7A A44G | 0.201 |

| Variant | self-cleavage |
| --- | --- |
| C6G A44U | 0.148 |
| C6G A44C | 0.17 |
| C6G A44G | 0.134 |
| C6G C50U | 0.265 |
| U7C A47G | 0.0534 |
| U7C U52C | 0.528 |
| U7C U52G | 0.653 |
| U7C C38G | 0.202 |
| C6U U8C | 0.686 |
| U7C A28U | 0.514 |
| U7C A28C | 0.367 |
| U7C A41C | 1.01 |
| C6U A61C | 0.296 |
| U8A C10A | 0.458 |
| U7A G34A | 1.39 |
| U7C U63C | 0.256 |
| U7C U33C | 0.157 |
| U7C U33G | 0.129 |
| U7A A64G | 0.525 |
| U8A C46G | 0.0541 |
| U7A G29C | 0.149 |
| U7C G15U | 1.05 |
| U7C G15C | 0.948 |
| U7G U67G | 0.283 |

| Variant | self-cleavage |
| --- | --- |
| C6U A23C | 0.608 |
| C6U A23U | 0.615 |
| U7G A24U | 0.685 |
| U7G A24C | 0.677 |
| U7A A35C | 1.28 |
| C6G A35G | 0.414 |
| U7A C48A | 0.165 |
| U7A C48U | 0.0656 |
| U7A C48G | 0.0789 |
| U7C U58A | 0.565 |
| C6U C16G | 0.65 |
| C6U C16U | 0.971 |
| U8A A45C | 0.158 |
| U8A A45U | 0.198 |
| U8A A45G | 0.193 |
| C6U A41C | 1.16 |
| U7C U9A | 0.607 |
| U7C U53C | 0.677 |
| U7G G56C | 0.0943 |
| U7G G56A | 0.151 |
| C6G C46G | 0.124 |
| U7A U33A | 0.218 |
| U7C A24U | 0.707 |
| U7C A24C | 1.04 |

| Variant | self-cleavage |
| --- | --- |
| U7A C18G | 0.802 |
| U8A A36C | 0.412 |
| U7G U53G | 0.641 |
| U7G U53A | 0.967 |
| C6U G15U | 0.814 |
| C6G U52G | 0.583 |
| U7C A43U | 0.151 |
| C6G G25C | 0.744 |
| U7C A23U | 0.694 |
| U7C A23G | 0.6 |
| U7G U70A | 0.673 |
| C6G A43G | 0.0944 |
| C6G A43U | 0.0915 |
| U7C G29C | 0.131 |
| U7A G27A | 0.27 |
| C6G U33C | 0.206 |
| C6G U33G | 0.0659 |
| U8A A31C | 0.0591 |
| U7G C18A | 1.01 |
| U7C C48A | 0.114 |
| U7C C48G | 0.145 |
| C6G G19U | 0.201 |
| U8A C16U | 0.788 |
